The results in this text go back to paper doi:10.1101/2025.02.03.636245.

The assay concerns the target OdinSepF (Candidatus Odinarchaeota). Nature of the assay: SEC-MALS.

The term stoichiometry N denotes a count of units in the complex or per binding partner. In turn, OdinSepF (natural protein) yielded a stoichiometry N of 2.
